Where two headings read alike, the source gives them in different places.
Assays:
[1] = cited from earlier work
[2] = cited from earlier work; remark: listed apart in the source
[3] = Accelerated stability study at 37° C., BIOD 901 compared to Lilly glucagon (Example 3); assay type: physicochemical; conditions: in solution at pH 4

glucagon
gel formation ([1]; acidic aqueous conditions (pH 3-4)): forms a gel
precipitation ([1]; neutral aqueous solution): precipitates within an hour of preparation
solubility in aqueous solutions ([1]; pH less than 3 or greater than 9): soluble
solubility in aqueous solutions ([1]; pH range of 4 to 8): low solubility
onset of action post injection [2]: 5 to 20 min
time to gel [3]: ≤ 2 days

Reference: patent US9610329B2 (Albireo Pharma, Inc., priority 2009, dated 2017)
